Publication PMC4882581, “Characterisation of assembly and ubiquitylation by the RBCC motif of Trim5α” (Scientific Reports, 2016)

B1: RhT5 88–261dCC (wild type) (domain or fragment, Rhesus macaque)
chain: PEEGQKVDHCARHGEKLLLFCQEDSKVICWLCERSQEHRGHHTFLMEEVAQEYHVKLQTALEMLRQKGGDPYMRELISELEHRLQGSMMDLLQGVDGIIKRIEN
notes: Trim5α, Rhesus macaque, Bbox-CC, residues Pro88-Lys154; Trim5α, Rhesus macaque, CC-L2, residues Tyr229-Asn261; In a monomer-trimer equilibrium; Vector pET47b or pET49b; IMAC purification, so the His-tag is surmised; also called RhT5 88–216dCC (as printed once); source: E. coli BL21(DE3), purified (IMAC, 3C cleavage, anion exchange, SEC); not shown: His-tag, N-terminal, cleaved
B2: RhT5 94–141 (Trim5α Bbox domain alone, residues 94–141) (domain or fragment, Rhesus macaque, UniProt Q0PF16 94-141, looked up)
chain: VDHCARHGEKLLLFCQEDSKVICWLCERSQEHRGHHTFLMEEVAQEYH
notes: Trim5α, Rhesus macaque, Bbox domain, residues 94–141; Cloned into pET47b (N-terminal His-tag) or pET49b (N-terminal GST-tag); purified by IMAC, so the His-tag vector is surmised; also called RhT5α 94–141; Bbox only construct; source: E. coli BL21(DE3), purified (IMAC, 3C cleavage, anion exchange, SEC); not shown: His-tag, N-terminal, cleaved
B3: RhT5 1–261dCC (RhT5 1–261Δ155–228), wild type (domain or fragment, Rhesus macaque)
chain: MASGILLNVKEEVTCPICLELLTEPLSLHCGHSFCQACITANHKKSMLYKEGERSCPVCRISYQPENIQPNRHVANIVEKLREVKLSPEEGQKVDHCARHGEKLLLFCQEDSKVICWLCERSQEHRGHHTFLMEEVAQEYHVKLQTALEMLRQKGGDPYMRELISELEHRLQGSMMDLLQGVDGIIKRIEN
notes: Trim5α, Rhesus macaque, RING, L1, Bbox and start of the coiled-coil, residues 1–154; In a monomer-trimer equilibrium (trimer mass printed 67.8 kDa); also called Wt; source: expressed in LB broth with IPTG; purified (amylose resin, on column 3C protease cleavage, anion exchange); not shown: MBP, C-terminal, cleaved

Key:
[1] = molecular target: the molecule itself; assay: AUC; multi-speed sedimentation equilibrium; monomer to trimer; three concentrations (0.125, 0.25, 0.5 mg/ml); 14,000, 18,000 and 22,000 rpm; 20 °C; 10 mM Tris/HCl pH 7.8, 150 mM NaCl; fit in SEDPHAT
[2] = molecular target: the molecule itself; assay: AUC; sedimentation velocity, c(S) analysis, and isotherm of the weight-averaged S fit to a monomer-trimer model (monomer to trimer, RhT5 1–261dCC); 20 °C; 10 mM Tris/HCl pH 7.8, 150 mM NaCl; 50 krpm (RhT5 94–141, RhT5 88–261dCC) or 38 krpm (RhT5 1–261dCC)

Row | Protein | stoichiometry N [1] | stoichiometry N [2]
1 | B1 | 3 | –
2 | B2 | – | 2
3 | B3 | – | 3
